# PMC9841405
# Positions count from the first letter of the chain named.
# T1: AtTCP10-DBD RR mutant (UniProt O82277 1-87, R46A;R48A)
# T1 sequence: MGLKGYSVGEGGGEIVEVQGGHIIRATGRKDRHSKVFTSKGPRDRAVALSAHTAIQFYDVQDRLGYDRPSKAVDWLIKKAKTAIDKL
# T2: AtTCP10-DBD DRH mutant (UniProt O82277 1-87, D31A;R32A;H33A)
# T2 sequence: T1 sequence with D31A, R32A, H33A, A46R, A48R
# T3: AtTCP10-DBD DRH RR mutant (UniProt O82277 1-87, D31A;R32A;H33A;R46A;R48A)
# T3 sequence: T1 sequence with D31A, R32A, H33A
# T4: AtTCP10-DBD (UniProt O82277 1-87)
# T4 sequence: T1 sequence with A46R, A48R
# B1: three-site class I DNA (dsDNA)
# DNA 1: ATGTGGGTCCCACT
# DNA 2: TAGTGGGACCCACA
# B2: one-site class I DNA (dsDNA)
# DNA 1: ATAGAGGTCCGTGT
# DNA 2: TACACGGACCTCTA
# B3: two-site class I DNA (dsDNA)
# DNA 1: ATGTGGGTCCGTGT
# DNA 2: TACACGGACCCACA
# B4: three-site class II DNA (dsDNA)
# DNA 1: ATGTGGTCCCCACT
# DNA 2: TAGTGGGGACCACA
# B5: two-site class II DNA (dsDNA)
# DNA 1: ATGTGGTCCCGTGT
# DNA 2: TACACGGGACCACA
# B6: one-site class II DNA (dsDNA)
# DNA 1: ATAGAGTCCCGTGT
# DNA 2: TACACGGGACTCTA
# Key:
# [1] = biological target: T5, AtTCP15-DBD (UniProt Q9C9L2 51-113); assay: ITC
# [2] = biological target: T5, AtTCP15-DBD; assay: EMSA
# [3] = biological target: T1, AtTCP10-DBD RR mutant; assay: ITC
# [4] = biological target: T2, AtTCP10-DBD DRH mutant; assay: ITC
# [5] = biological target: T3, AtTCP10-DBD DRH RR mutant; assay: ITC
# [6] = biological target: T4, AtTCP10-DBD; assay: ITC
# [7] = biological target: T2, AtTCP10-DBD DRH mutant; assay: EMSA
Binder,Kd [1],Kd [6],binding result [7],also measured
B1,38.3 nM,,,
B2,,,,binding result [2]: binds
B3,109 nM,,,
B4,,8.5 nM,,Kd [3]: 1130 nM; Kd [4]: 353 nM; Kd [5]: 1620 nM
B5,,351 nM,binds,
B6,,366 nM,binds,
